The values that follow come from article PMC3863973 (Nature Communications, 2013).

Broadly, the stoichiometry N is a count of units in the complex or per binding partner.

B1: FLAG-tagged KaiC-WT (enzyme)
chain: MTSAEMTSPNNNSEHQAIAKMRTMIEGFDDISHGGLPIGRSTLVSGTSGTGKTLFSIQFLYNGIIEFDEPGVFVTFEETPQDIIKNARSFGWDLAKLVDEGKLFILDASPDPEGQEVVGGFDLSALIERINYAIQKYRARRVSIDSVTSVFQQYDASSVVRRELFRLVARLKQIGATTVMTTERIEEYGPIARYGVEEFVSDNVVILRNVLEGERRRRTLEILKLRGTSHMKGEYPFTITDHGINIFPLGAMRLTQRSSNVRVSSGVVRLDEMCGGGFFKDSIILATGATGTGKTLLVSRFVENACANKERAILFAYEESRAQLLRNAYSWGMDFEEMERQNLLKIVCAYPESAGLEDHLQIIKSEINDFKPARIAIDSLSALARGVSNNAFRQFVIGVTGYAKQEEITGLFTNTSDQFMGAHSITDSHISTITDTIILLQYVEIRGEMSRAINVFKMRGSWHDKAIREFMISDKGPDIKDSFRNFERIISGSPTRITVDEKSELSRIVRGVQEKGPES
B2: His-tagged KaiC-AA (enzyme)
chain: MTSAEMTSPNNNSEHQAIAKMRTMIEGFDDISHGGLPIGRSTLVSGTSGTGKTLFSIQFLYNGIIEFDEPGVFVTFEETPQDIIKNARSFGWDLAKLVDEGKLFILDASPDPEGQEVVGGFDLSALIERINYAIQKYRARRVSIDSVTSVFQQYDASSVVRRELFRLVARLKQIGATTVMTTERIEEYGPIARYGVEEFVSDNVVILRNVLEGERRRRTLEILKLRGTSHMKGEYPFTITDHGINIFPLGAMRLTQRSSNVRVSSGVVRLDEMCGGGFFKDSIILATGATGTGKTLLVSRFVENACANKERAILFAYEESRAQLLRNAYSWGMDFEEMERQNLLKIVCAYPESAGLEDHLQIIKSEINDFKPARIAIDSLSALARGVSNNAFRQFVIGVTGYAKQEEITGLFTNTSDQFMGAHSITDSHIAAITDTIILLQYVEIRGEMSRAINVFKMRGSWHDKAIREFMISDKGPDIKDSFRNFERIISGSPTRITVDEKSELSRIVRGVQEKGPES
B3: His-tagged KaiC-DA (enzyme)
chain: MTSAEMTSPNNNSEHQAIAKMRTMIEGFDDISHGGLPIGRSTLVSGTSGTGKTLFSIQFLYNGIIEFDEPGVFVTFEETPQDIIKNARSFGWDLAKLVDEGKLFILDASPDPEGQEVVGGFDLSALIERINYAIQKYRARRVSIDSVTSVFQQYDASSVVRRELFRLVARLKQIGATTVMTTERIEEYGPIARYGVEEFVSDNVVILRNVLEGERRRRTLEILKLRGTSHMKGEYPFTITDHGINIFPLGAMRLTQRSSNVRVSSGVVRLDEMCGGGFFKDSIILATGATGTGKTLLVSRFVENACANKERAILFAYEESRAQLLRNAYSWGMDFEEMERQNLLKIVCAYPESAGLEDHLQIIKSEINDFKPARIAIDSLSALARGVSNNAFRQFVIGVTGYAKQEEITGLFTNTSDQFMGAHSITDSHIDAITDTIILLQYVEIRGEMSRAINVFKMRGSWHDKAIREFMISDKGPDIKDSFRNFERIISGSPTRITVDEKSELSRIVRGVQEKGPES
B4: His-tagged KaiC-AE (enzyme)
chain: MTSAEMTSPNNNSEHQAIAKMRTMIEGFDDISHGGLPIGRSTLVSGTSGTGKTLFSIQFLYNGIIEFDEPGVFVTFEETPQDIIKNARSFGWDLAKLVDEGKLFILDASPDPEGQEVVGGFDLSALIERINYAIQKYRARRVSIDSVTSVFQQYDASSVVRRELFRLVARLKQIGATTVMTTERIEEYGPIARYGVEEFVSDNVVILRNVLEGERRRRTLEILKLRGTSHMKGEYPFTITDHGINIFPLGAMRLTQRSSNVRVSSGVVRLDEMCGGGFFKDSIILATGATGTGKTLLVSRFVENACANKERAILFAYEESRAQLLRNAYSWGMDFEEMERQNLLKIVCAYPESAGLEDHLQIIKSEINDFKPARIAIDSLSALARGVSNNAFRQFVIGVTGYAKQEEITGLFTNTSDQFMGAHSITDSHIAEITDTIILLQYVEIRGEMSRAINVFKMRGSWHDKAIREFMISDKGPDIKDSFRNFERIISGSPTRITVDEKSELSRIVRGVQEKGPES

The target of experiment [1] is mutant KaiC (His-tagged KaiC-AA, -DE, -DA or -AE, as a group). The experiment can be described thus: pull-down.
The target in the next experiment is T1, His-tagged KaiC-WT (Synechococcus elongatus PCC 7942, UniProt Q79PF4 1-519).
T1 sequence: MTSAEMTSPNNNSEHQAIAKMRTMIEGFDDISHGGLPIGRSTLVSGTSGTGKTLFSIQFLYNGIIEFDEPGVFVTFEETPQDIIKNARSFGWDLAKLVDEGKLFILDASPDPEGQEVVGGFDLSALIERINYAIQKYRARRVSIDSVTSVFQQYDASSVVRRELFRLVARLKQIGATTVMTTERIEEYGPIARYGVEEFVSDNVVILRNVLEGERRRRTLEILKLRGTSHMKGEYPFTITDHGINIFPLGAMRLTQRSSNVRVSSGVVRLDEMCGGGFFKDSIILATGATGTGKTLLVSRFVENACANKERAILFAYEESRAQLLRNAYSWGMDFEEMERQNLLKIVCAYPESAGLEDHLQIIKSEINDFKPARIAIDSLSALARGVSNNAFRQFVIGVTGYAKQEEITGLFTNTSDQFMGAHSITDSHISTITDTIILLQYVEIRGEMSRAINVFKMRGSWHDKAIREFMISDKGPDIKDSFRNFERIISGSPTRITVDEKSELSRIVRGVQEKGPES
Put plainly: pull-down.

The target in the experiment “His-tagged KaiC-AE” is B4. The experiment can be described thus: pull-down.
In the experiment “His-tagged KaiC-DA” the target is B3. Put plainly: pull-down.
The target of the experiment “His-tagged KaiC-AA” is B2. Put plainly: pull-down.
Another experiment addresses T2, FLAG-tagged KaiC-E318Q (Synechococcus elongatus PCC 7942, UniProt Q79PF4 1-519, E318Q).
T2 sequence: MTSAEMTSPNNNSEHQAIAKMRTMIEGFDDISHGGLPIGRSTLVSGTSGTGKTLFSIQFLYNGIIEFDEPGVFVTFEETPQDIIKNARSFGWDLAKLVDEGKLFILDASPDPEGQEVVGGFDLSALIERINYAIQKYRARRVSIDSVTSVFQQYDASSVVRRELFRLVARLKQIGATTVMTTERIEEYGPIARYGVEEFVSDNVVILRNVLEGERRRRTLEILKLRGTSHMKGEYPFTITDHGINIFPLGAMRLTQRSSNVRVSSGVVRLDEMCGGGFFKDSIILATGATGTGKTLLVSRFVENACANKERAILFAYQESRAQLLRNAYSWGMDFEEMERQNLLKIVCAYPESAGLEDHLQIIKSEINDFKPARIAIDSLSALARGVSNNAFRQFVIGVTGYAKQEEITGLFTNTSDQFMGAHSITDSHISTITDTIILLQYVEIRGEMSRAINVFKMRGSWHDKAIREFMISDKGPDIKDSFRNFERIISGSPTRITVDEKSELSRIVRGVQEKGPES
Put plainly: co-IP.

The experiment “FLAG-tagged KaiC-WT” deals with B1. Put plainly: co-IP.

For the molecule B1, in experiment [1], the stoichiometry N is 4 to 5. The binding result with His-tagged KaiC-WT, in the experiment with His-tagged KaiC-AE, with His-tagged KaiC-DA and with His-tagged KaiC-AA was “binds” each time.
For B2, the “stoichiometry N” value with FLAG-tagged KaiC-E318Q worked out at 1.
As to B3, the “stoichiometry N” value with FLAG-tagged KaiC-WT is approximately 1.
On the same count and under the same terms, the same measure for B4: approximately 1.
